These results are taken from article PMC8319299.

Data set [1] has as its system PRC2 core (EZH2-EED-SUZ12-RBBP4) (Homo sapiens), Q15910-2+O75530+Q15022+Q09028. Description: EMSA. Particulars: 50 mM Tris-HCl pH 7.5 (25 C), 100 mM KCl, 2 mM 2-mercaptoethanol, 0.1 mg/mL BSA, 0.05% NP-40; FA at 30 C; nucleosome EMSA with 5% glycerol at 4 C (+5 ng/uL …).
For data set [2], the system named is PRC2-PALI1 PIR (Homo sapiens), Q15910-2+O75530+Q15022+Q09028+Q96JN0-3. Nature of the data set: EMSA. Particulars: 50 mM Tris-HCl pH 7.5 (25 C), 100 mM KCl, 2 mM 2-mercaptoethanol, 0.1 mg/mL BSA, 0.05% NP-40; FA at 30 C; nucleosome EMSA with 5% glycerol at 4 C (+5 ng/uL …).
Data set [3] has as its target EED (amino acids 40-441) (human) (UniProt O75530). Nature of the data set: fluorescence polarisation; fluorescence anisotropy displacement titration: 2-fold serial dilutions of unlabelled peptide with 10 µM EED and 40 nM 5-FAM labelled JARID2-K116me3 peptide; same buffer, 30 °C; Kd of the unlabelled peptide from a fit. On the technique in general: Polarisation of emitted light reports the rotation of a fluorescent probe.

In data set [4] the test system is PRC2-PALI1 PIR-long (Homo sapiens), Q15910-2+O75530+Q15022+Q09028+Q96JN0-3. Nature of the data set: EMSA. Particulars: 50 mM Tris-HCl pH 7.5 (25 C), 100 mM KCl, 2 mM 2-mercaptoethanol, 0.1 mg/mL BSA, 0.05% NP-40; FA at 30 C; nucleosome EMSA with 5% glycerol at 4 C (+5 ng/uL …). In general terms: A gel shift assay detects complexes by their altered migration in electrophoresis.

Sequence of PRC2 core (EZH2-EED-SUZ12-RBBP4) (Homo sapiens), Q15910-2+O75530+Q15022+Q09028 (Q15910 other isoform, or with tags, fused parts or gaps, chain 1 of 4): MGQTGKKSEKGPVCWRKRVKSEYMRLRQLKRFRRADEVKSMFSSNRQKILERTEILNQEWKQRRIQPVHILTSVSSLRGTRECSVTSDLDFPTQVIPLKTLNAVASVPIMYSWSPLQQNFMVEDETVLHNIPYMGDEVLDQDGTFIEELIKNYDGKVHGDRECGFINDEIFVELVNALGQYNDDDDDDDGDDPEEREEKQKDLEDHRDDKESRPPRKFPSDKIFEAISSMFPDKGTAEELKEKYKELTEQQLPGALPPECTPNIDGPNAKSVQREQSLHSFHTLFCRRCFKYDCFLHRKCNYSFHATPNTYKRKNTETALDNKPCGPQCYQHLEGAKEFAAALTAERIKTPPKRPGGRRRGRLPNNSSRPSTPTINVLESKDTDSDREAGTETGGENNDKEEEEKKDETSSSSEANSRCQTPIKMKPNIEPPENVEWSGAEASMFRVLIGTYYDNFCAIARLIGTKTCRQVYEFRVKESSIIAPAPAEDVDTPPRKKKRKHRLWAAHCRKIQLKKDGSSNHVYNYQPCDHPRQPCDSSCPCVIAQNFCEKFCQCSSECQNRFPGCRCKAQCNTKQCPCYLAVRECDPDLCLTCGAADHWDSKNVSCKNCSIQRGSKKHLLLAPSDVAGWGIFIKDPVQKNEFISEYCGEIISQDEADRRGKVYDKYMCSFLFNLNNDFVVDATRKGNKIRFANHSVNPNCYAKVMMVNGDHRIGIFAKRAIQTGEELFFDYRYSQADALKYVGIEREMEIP
Sequence of PRC2 core (EZH2-EED-SUZ12-RBBP4) (Homo sapiens), Q15910-2+O75530+Q15022+Q09028 (O75530 whole entry, chain 2 of 4): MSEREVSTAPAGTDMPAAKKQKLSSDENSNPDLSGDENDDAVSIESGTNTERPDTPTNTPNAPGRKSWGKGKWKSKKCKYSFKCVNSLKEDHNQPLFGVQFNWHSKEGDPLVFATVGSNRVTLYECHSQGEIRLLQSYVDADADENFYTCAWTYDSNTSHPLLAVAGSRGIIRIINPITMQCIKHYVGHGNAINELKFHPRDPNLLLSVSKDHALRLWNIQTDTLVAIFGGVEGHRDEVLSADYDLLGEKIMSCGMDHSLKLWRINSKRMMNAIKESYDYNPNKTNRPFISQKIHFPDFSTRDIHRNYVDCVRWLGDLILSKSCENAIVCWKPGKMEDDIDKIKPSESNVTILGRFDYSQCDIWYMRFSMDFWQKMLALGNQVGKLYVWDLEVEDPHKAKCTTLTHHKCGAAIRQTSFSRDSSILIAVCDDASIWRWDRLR
Sequence of PRC2 core (EZH2-EED-SUZ12-RBBP4) (Homo sapiens), Q15910-2+O75530+Q15022+Q09028 (Q15022 whole entry, chain 3 of 4): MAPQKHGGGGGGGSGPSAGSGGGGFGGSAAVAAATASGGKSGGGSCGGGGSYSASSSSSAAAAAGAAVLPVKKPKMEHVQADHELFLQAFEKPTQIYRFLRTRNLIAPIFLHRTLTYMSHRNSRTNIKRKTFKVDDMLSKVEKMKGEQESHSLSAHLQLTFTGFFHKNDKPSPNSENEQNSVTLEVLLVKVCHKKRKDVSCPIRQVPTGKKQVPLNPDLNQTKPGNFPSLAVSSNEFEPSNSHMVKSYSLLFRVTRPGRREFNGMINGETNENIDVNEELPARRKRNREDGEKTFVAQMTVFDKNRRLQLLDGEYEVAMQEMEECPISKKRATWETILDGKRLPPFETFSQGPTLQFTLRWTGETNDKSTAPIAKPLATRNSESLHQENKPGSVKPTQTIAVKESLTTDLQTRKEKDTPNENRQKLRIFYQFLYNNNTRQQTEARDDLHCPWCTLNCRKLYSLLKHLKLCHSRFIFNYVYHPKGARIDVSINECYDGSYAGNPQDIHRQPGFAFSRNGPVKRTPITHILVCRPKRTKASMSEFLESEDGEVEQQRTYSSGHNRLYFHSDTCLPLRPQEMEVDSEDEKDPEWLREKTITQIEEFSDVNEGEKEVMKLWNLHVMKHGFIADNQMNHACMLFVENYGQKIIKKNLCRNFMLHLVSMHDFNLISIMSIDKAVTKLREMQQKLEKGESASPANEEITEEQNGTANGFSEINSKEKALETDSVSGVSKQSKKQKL
Sequence of PRC2 core (EZH2-EED-SUZ12-RBBP4) (Homo sapiens), Q15910-2+O75530+Q15022+Q09028 (Q09028 whole entry, chain 4 of 4): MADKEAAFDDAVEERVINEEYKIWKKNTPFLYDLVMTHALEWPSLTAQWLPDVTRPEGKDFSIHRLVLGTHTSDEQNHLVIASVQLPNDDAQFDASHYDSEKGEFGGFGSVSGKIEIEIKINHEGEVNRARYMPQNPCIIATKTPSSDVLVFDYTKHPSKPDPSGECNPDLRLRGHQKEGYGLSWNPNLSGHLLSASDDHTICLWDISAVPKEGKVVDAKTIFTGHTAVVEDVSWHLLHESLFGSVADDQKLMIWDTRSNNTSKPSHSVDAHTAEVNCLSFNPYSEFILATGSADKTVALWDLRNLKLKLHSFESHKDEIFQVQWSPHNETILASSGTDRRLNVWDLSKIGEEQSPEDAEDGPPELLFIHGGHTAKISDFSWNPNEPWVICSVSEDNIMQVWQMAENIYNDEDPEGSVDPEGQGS
Sequence of EED (amino acids 40-441) (human) (O75530 40-441): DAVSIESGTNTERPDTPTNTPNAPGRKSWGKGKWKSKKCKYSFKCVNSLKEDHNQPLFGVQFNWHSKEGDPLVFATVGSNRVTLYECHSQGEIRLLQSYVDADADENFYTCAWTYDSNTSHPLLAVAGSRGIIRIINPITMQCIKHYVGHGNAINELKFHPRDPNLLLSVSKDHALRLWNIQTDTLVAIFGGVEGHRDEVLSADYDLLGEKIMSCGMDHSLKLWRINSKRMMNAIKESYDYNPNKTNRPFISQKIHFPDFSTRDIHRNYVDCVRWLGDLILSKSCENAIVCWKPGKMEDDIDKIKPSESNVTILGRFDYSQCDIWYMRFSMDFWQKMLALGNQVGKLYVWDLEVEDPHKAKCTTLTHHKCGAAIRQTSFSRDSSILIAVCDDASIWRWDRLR

In general, Kd refers to a measure of binding affinity in units of concentration. Low values mean tighter binding, high ones weaker binding. For “CTGGAGAATCCCGGTGCCGAGGCCGCTCAATTGGTCGTAGACAGCTCTAGCACCGCTTAAACGCACGTACGCGCTGTCCCCCGCGTTTTAACCGCCAAGGGGATTACTCCCTAGTCTCCAGGCACGTGTCAGATATATACATCCTGT (double strand) [NCP147, H2A-Cy5]”, the dissociation constant Kd in data set [1] turned out to be 2560 nM; in data set [2] it was 48.5 nM.

In turn, PALI2-K1558me3 peptide gave a Kd in data set [3] of 8810 nM.

As to “ACCTCGCGAATGCATCTAGATGATATCGAGAATCCCGGTGCCGAGGCCGCTCAATTGGTCGTAGACAGCTCTAGCACCGCTTAAACGCACGTACGCGCTGTCCCCCGCGTTTTAACCGCCAAGGGGATTACTCCCTAGTCTCCAGGCACGTGTCAGATATATACATCCGATATCGGCGCCCT (double strand) [NCP182, H2A-Cy5]”, the values for the Kd in data set [1] and in data set [2] were 1410 nM and 17.1 nM, respectively.

PALI1-K1214me3 peptide returned a fold lower affinity than PALI1-K1219me3 and PALI1-K1241me3 in data set [3] of 4 fold.

Regarding “ACCTCGCGAATGCATCTAGATGATATCGAGAATCCCGGTGCCGAGGCCGCTCAATTGGTCGTAGACAGCTCTAGCACCGCTTAAACGCACGTACGCGCTGTCCCCCGCGTTTTAACCGCCAAGGGGATTACTCCCTAGTCTCCAGGCACGTGTCAGATATATACATCCGATATCGGCGCCCT (double strand) [mononucleosome 182 bp, Cy5-DNA]”, the Kd in data set [4] came to 19 nM; in data set [1] it was 330 nM.
